Experimental data: patent publication US20130230527A1 (University of California, published 2013)

Key:
[1] = target: T1, biotin conjugated 24 amino acid peptide of the extracellular loop of mouse EMP2 (mouse, biotin conjugated (position not given)); assay: ELISA on cognate EMP2 peptide (data not shown)
T1 construct: The EMP2 part is followed by a GSGSK tail; also called mEMP2 peptide; mEMP2
T1 peptide: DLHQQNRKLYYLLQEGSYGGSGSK

[2] = target: T2, biotin conjugated 24 amino acid peptide of the extracellular loop of human EMP2 (human, biotin conjugated (position not given)); assay: ELISA on peptide-coated plates
T2 construct: The EMP2 part is followed by a GSGSK tail; also called hEMP2 peptide; hEMP2
T2 peptide: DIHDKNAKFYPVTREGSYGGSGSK
Protocol: (§1) 10 μg/mL of biotinylated 24 amino acid peptide (see the phage library selection section above) was coated onto streptavidin-coated 96-well plates (Roche Applied Science, Indianapolis, Ind.) in PBS for 1 hour at room temperature. Plates were then washed with PBS and blocked with 2% milk PBS for 2 hours at 37° C. Expressed phage antibodies or diabodies were added to each well, incubated at room temperature for 1 hour, and washed with 0.05% PBS/Tween three times. Bound antibodies or diabodies were detected with mouse anti-c-Myc (9E10) antibody (Calbiochem, San Diego, Calif.), followed by horseradish peroxidase (HRP) conjugated anti-mouse antibody (BD Bioscience Pharmingen, Franklin Lakes, N.J.) and TMB solution (eBioscience, San Diego, Calif.). Plates were read by microplate reader Model 550 (Bio-Rad, Hercules, Calif.) at 450 nm.
(§2) Specificity and titer of selected diabodies were initially tested by ELISA using plates coated with hEMP2 or mEMP2 peptides. […] Using monovalent scFv products of these two antibodies, the EC₅₀ for cognate EMP2 peptide was >2 μg/mL (data not shown). Thus, divalency contributed to the avidity of the two anti-EMP2 diabodies.

[3] = target: T1, biotin conjugated 24 amino acid peptide …; assay: ELISA, diabody titration on mEMP2 peptide on streptavidin plates
Protocol: as §1, §2

[4] = target: T1, biotin conjugated 24 amino acid peptide …; assay: method and target not given; reference is the original scFv
[5] = target: T2, biotin conjugated 24 amino acid peptide …; assay: ELISA on cognate EMP2 peptide (data not shown)
[6] = target: T1, biotin conjugated 24 amino acid peptide …; assay: ELISA on peptide-coated plates
Protocol: as §1, §2

[7] = target: T2, biotin conjugated 24 amino acid peptide …; assay: ELISA, diabody titration on hEMP2 peptide on streptavidin plates
Protocol: as §1, §2

[8] = target: T2, biotin conjugated 24 amino acid peptide …; assay: method and target not given; reference is the original scFv

B1: KS83 monovalent scFv (scFv)
scFv: MAQVQLVESGGGLVQPGGSLRLSCAASGFTFSSYAMHWVRQAPGKGLEWVAVISYDGSNKYYADSVKGRFTISRDNSKNTLYLQMNSLRAEDTAVYYCARTVGATGAFDIWGQGTMVTVSSSGGGGSGGGGSGGGGSDIVMTQSPSTVSASVGDRVIIPCRASQSIGKWLAWYQQKPGKAPKLLIYKASSLEGWVPSRFSGSGSGTEFSLTISSLQPDDSATYVCQQSHNFPPTFGGGTKLEIKRAAAEQKLISEEDLNGAAHHHHHH
notes: The original scFv before the linker was shortened; also called KS83 scFv
B1 was tested, and the EC50 [1] was > 2 µg/mL.

B2: anti-EMP2 diabody KS83 (other)
chain: MAQVQLVESGGGLVQPGGSLRLSCAASGFTFSSYAMHWVRQAPGKGLEWVAVISYDGSNKYYADSVKGRFTISRDNSKNTLYLQMNSLRAEDTAVYYCARTVGATGAFDIWGQGTMVTVSSSSGGGSDIVMTQSPSTVSASVGDRVIIPCRASQSIGKWLAWYQQKPGKAPKLLIYKASSLEGWVPSRFSGSGSGTEFSLTISSLQPDDSATYVCQQSHNFPPTFGGGTKLEIKRAAAEQKLISEEDLNGAAHHHHHH
notes: Diabody: bivalent dimer of a VH-5 aa linker-VL chain with c-Myc and 6 His tags; Selected against the mEMP2 peptide; also called K83; diabody 83
For B2, the binding result [2] was “no binding”, the EC50 [3] was 9.32 ng/mL and the “fold increase in binding activity compared to original scFvs” value [4] was > 20 fold.

B3: KS49 monovalent scFv (scFv)
scFv: MAQVQLVQSGGGVVQPGRSLRLSCAASGFTFSSYAMHWVRQAPGKGLEWVAVISYDGSNKYYADSVKGRFTISRDNSKNTLYLQMNSLRAEDTAVYYCARDRRGRKSAGIDYWGQGTLVTVSSGGGGSGGGGSGGGGSDIQMTQSPSSLSASVGDRVTITCQASQDISNYLNWYQQKPGKAPKLLIYAASSLQSGVPSRFSGSGSGTDFTLTISSLQPEDFATYYCLQDYNGWTFGQGTKVDIKRAAAEQKLISEEDLNGAAHHHHHH
notes: The original scFv before the linker was shortened; also called KS49 scFv
For B3, the EC50 [5] was > 2 µg/mL.

B4: anti-EMP2 diabody KS49 (other)
chain: MAQVQLVQSGGGVVQPGRSLRLSCAASGFTFSSYAMHWVRQAPGKGLEWVAVISYDGSNKYYADSVKGRFTISRDNSKNTLYLQMNSLRAEDTAVYYCARDRRGRKSAGIDYWGQGTLVTVSSSGGGSDIQMTQSPSSLSASVGDRVTITCQASQDISNYLNWYQQKPGKAPKLLIYAASSLQSGVPSRFSGSGSGTDFTLTISSLQPEDFATYYCLQDYNGWTFGQGTKVDIKRAAAEQKLISEEDLNGAAHHHHHH
notes: Diabody: bivalent dimer of a VH-5 aa linker-VL chain with c-Myc and 6 His tags, made in E. coli TG1; Selected against the hEMP2 peptide; also called K49; anti-hEMP2 diabody
For B4, the binding result [6] was “no binding”, the EC50 [7] was 0.0531 µg/mL and the “fold increase in binding activity compared to original scFvs” value [8] was > 20 fold.
